Here are results for 40 sequences from the nanobody polyreactivity screen of Harvey et al. (2022).

The nature of the data set: yeast display, Sf9 membrane polyspecificity reagent, FACS + sequencing; frameworks hold sequencing errors. The method in brief: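 Nanobodies came from a synthetic yeast display library in Saccharomyces cerevisiae BJ5465, induced with galactose for 36–48 hours and stained for 1 hour at 4 °C with 10% biotinylated, detergent-solubilized Sf9 membrane reagent. Cells were enriched on streptavidin microbeads and then FACS-sorted, with low and high (top ~1%) gates set on anti-HA fluorescence for expression and streptavidin fluorescence for reagent binding. Each polyreactivity label reflects the gate a clone came from. Genes were amplified by colony PCR, sequenced by MiSeq 2 × 250 and filtered by CDR length.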
Consider “QVQLVESGGGLVQAGGSLRLSCAASGLIFTDYDMGWYRQAPGKERELVAAISTSGGSTYYADSVKGRFTISRDNAKNPVYLQMNSLKPAETAVYYCAAEYVYPYWNGFDYWGQGTQVTVSS”, for which the “polyreactivity (PSR sort gate)” value was “low polyreactivity”.

On to “QVQLVESGGGLVQAGGSLRLSCAASGLIFTGYVMGWYRQAPGKERELVAVIRSGDSTYYADSVKGRFTISRDNAKNTVYLQMNSLKPEDTAVYYCAKYDTGGRAHDYWGQGTQVTVSS”, for which the “polyreactivity (PSR sort gate)” value is given as “low polyreactivity”.

On to “QVQLVESGGGLVQAGGSLRLSCAASGLIFTVNAMGWYRQAPGKDRELVAAISGGDSTNYADSVKGRFTISRDNAKNTVYLQMNSLKPEDTAVYYCAVRGRAQYTSRRYGYWGQGTQVTVSS”, for which the “polyreactivity (PSR sort gate)” value is “high polyreactivity”.

In the case of “QVQLVESGGGLVQAGGSLRLSCAASGLIFTWNAMGWYRQATGKERELVAAISTGGSTSYADSVKGRFTISRDNAKNTVYLQMNSLKPEDTAVYYCARDSSIWSHGSWYDYWGQGTQVTVSS”, the “polyreactivity (PSR sort gate)” value is recorded as “low polyreactivity”.

For the sequence “QVQLVESGGGLVQAGGSLRLSCAASGLIFTYYAMGWYRQAPGKERELVAAISGRGGSTYYADSVKGRFTISRDNAKNTVYLQMNSLKPEDTAVYYCAAVRWAGYVSDYGYWGQGTQVTVSS”, the “polyreactivity (PSR sort gate)” value is given as “high polyreactivity”.

Take “QVQLVESGGGLVQAGGSLRLSCAASGLIFTYYAMGWYRQAPGKEREMVAAISSSGVNTYYADSVKGRFTISRDNAKNTVYLQMNSLKPEYTAVYYCAAELQPSPVGGIIQYGFDYWGQGTQVTVSS”: the “polyreactivity (PSR sort gate)” value was “low polyreactivity”.

Regarding “QVQLVESGGGLVQAGGSLRLSCAASGLIFVGNAMGWYRQAPGKERELVAAISASTDNTYYADSVKGRFTISRDNAKNTVYLQMISLKPEDTAVYYCNAEQSRNSGKHDYWGQGTQVTVSS”, the “polyreactivity (PSR sort gate)” value is given as “low polyreactivity”.

On to “QVQLVESGGGLVQAGGSLRLSCAASGLIFVINARGWYRQAPGKERELVAAIDYSGGSTYYADSVKGRFTISRDNAKNTVYLQMNSLKPEDTAVYYCAASKIGYWGDYFRYYYWGQGTQVTVSS”, for which the “polyreactivity (PSR sort gate)” value was “low polyreactivity”.

Consider “QVQLVESGGGLVQAGGSLRLSCAASGLIFVNAMGWYRQAPGKEREFVAAITYSTGSTYYADSVKGRFTISRDIAKNTVYLQMNSLKPEDTAVYYCAKDRSGHGTERDYWGQGTQVTVSS”, for which the “polyreactivity (PSR sort gate)” value is given as “low polyreactivity”.

Take “QVQLVESGGGLVQAGGSLRLSCAASGLIFVPYAMGWYRQAPGKERELVATISARGASTYYADSVKGRFTISRDNAKNTVYLQMNSLKPEDTAVYYCATRNYGRASYDYWGQGTQVTVSS”: the “polyreactivity (PSR sort gate)” value is recorded as “high polyreactivity”.

On to “QVQLVESGGGLVQAGGSLRLSCAASGLIFVSNAMGWYRQAPGKERELVAAISWSGSRTYYADSVKGRFTISRENAKNTVYLQMNSLKPEDTAVYYCNAVRRGLPVVGAYDYWGQGTQVTVSS”, for which the “polyreactivity (PSR sort gate)” value was “high polyreactivity”.

As for “QVQLVESGGGLVQAGGSLRLSCAASGLIFVSYAMGWYRQAPGKERELVAAISSGGSTYYADSVKGRFTISRDNAKNTVYLQINSLKPEDTAVYYCAAEYVFRGYVGYDYWGQGTQVTVSS”, the “polyreactivity (PSR sort gate)” value was “low polyreactivity”.

For “QVQLVESGGGLVQAGGSLRLSCAASGLIFVSYAMGWYRQAPGKERELVASITYSGGGTYYADSVKGRFTISRDYAKNTVYLQMNSLKPEDNAVYYCNADVCWCYSVYREYCMDYWGQGTQVTVSS”, the “polyreactivity (PSR sort gate)” value is reported as “low polyreactivity”.

In the case of “QVQLVESGGGLVQAGGSLRLSCAASGLIFVVYAMGWYRQAPGKERELVAVISSDGGTYYADSVKGRFTISRDNAKNTVYLQMNSLKPEDTAVYYCAALGYPNARTSRISYFRYDYWGQGTQVTVSS”, the “polyreactivity (PSR sort gate)” value is reported as “high polyreactivity”.

“QVQLVESGGGLVQAGGSLRLSCAASGLIFVWYDMGWYRQAPGKERELVATISSDGITNYADSVKGLFTISRDNAKNTVYLQMNSLKPEDTAVSYCNAGPDDYVGYWGKYDYWGQGTQVTVSS”: the “polyreactivity (PSR sort gate)” value is reported as “low polyreactivity”.

For the sequence “QVQLVESGGGLVQAGGSLRLSCAASGLIFWHYAMGWYRQAPGKERELVAAISRRGGSTYYADSVKGRFTISRDNAKNTVYLQMNSLKPEDTAVYYCAADVWGSSAQRGWRKDYYWGQGTQVTVSS”, the “polyreactivity (PSR sort gate)” value is recorded as “high polyreactivity”.

On to “QVQLVESGGGLVQAGGSLRLSCAASGLIFYAKAMGWYRQAPGKEREFVAAITYRGGSTYYADSVKGRFTISRDKAKNTVYLQMNCLKPEATAVYYCATVTDRYPYIRRYHFPYYYWGQGTQVTVSS”, for which the “polyreactivity (PSR sort gate)” value is listed as “high polyreactivity”.

For “QVQLVESGGGLVQAGGSLRLSCAASGLIFYAYAMGWYRQAPGKERELVAGIWIDDSTYYADSVKGRFTISRDNAKNTVYLQMNSLKPEDTAVYYCNKRVRSYYLYRGDYWGQGTQVTVSS”, the “polyreactivity (PSR sort gate)” value is given as “low polyreactivity”.

Consider “QVQLVESGGGLVQAGGSLRLSCAASGLIFYDNMGWSRQAPGKERELVAAISSSGGSTSYADSVKGRFTISRDNAKNTVYLQMNSLKPADTAVYYCAADSYPAYLGFVGFDYWGQGTQVTVSS”, for which the “polyreactivity (PSR sort gate)” value is on record as “low polyreactivity”.

In the case of “QVQLVESGGGLVQAGGSLRLSCAASGLIFYDNMGWYRQAPGKERELVAAISSSGGSTSYADSVKGRFTISRDNAKNTVYLQMISLKPEDTAVYYCAADSSPAFLGFVGFEYWGQGTEVTVSS”, the “polyreactivity (PSR sort gate)” value is on record as “low polyreactivity”.

“QVQLVESGGGLVQAGGSLRLSCAASGLIFYDNMGWYRQAPGKERELVAAISSSGGSTSYADSVKGRFTISRDNAKNTVYLQMNSLKPVDTAVYYCAADSYPAYLGFVGFDYWGQGTQVTVSS”: the “polyreactivity (PSR sort gate)” value is listed as “low polyreactivity”.

As to “QVQLVESGGGLVQAGGSLRLSCAASGLIFYGNAMGWYRQEPGKERELVAAISWSGGNTSYADSVKGRFTISRDNAKNTVYLQMNSLKPEVTAVYYCNADSLPSVERYGYWGQGTQVTVSS”, the “polyreactivity (PSR sort gate)” value was “low polyreactivity”.

Take “QVQLVESGGGLVQAGGSLRLSCAASGLIFYGYVMGWYRHAPGKERELVAGISRNYGSTYYADSVKGRFTISRDNAKHTVYLQMNSLKPEDTAVYYCAALTFEAWAGEDYWGQGTQVTVTS”: the “polyreactivity (PSR sort gate)” value was “low polyreactivity”.

Regarding “QVQLVESGGGLVQAGGSLRLSCAASGLIFYKYAMGWYRQAPGKERELVAAITRGGGSTSYADSVKGRFTISRDNAKNTVYLQMNCLKPEDTAVYYCNAAPYTRALQGEFDYWGQGTQVTVSS”, the “polyreactivity (PSR sort gate)” value was “high polyreactivity”.

In the case of “QVQLVESGGGLVQAGGSLRLSCAASGLIFYKYAMGWYRQAPGKERELVASISTGGGSTYYADSVKGRFTISRDNAKNTVYLQMNSLKPEDTAVYYCAARWWSRFRGSHSLYDYWGQGTQVTVSS”, the “polyreactivity (PSR sort gate)” value is “high polyreactivity”.

Consider “QVQLVESGGGLVQAGGSLRLSCAASGLIFYLYAMGWYRQAPGKEREFVAGINWSGGNTYADSVKGRFTISRDNAKNTVYLQLNSLKPEDTAVYYCAADSLIYTHPYQYDYWGQGTQVTVSS”, for which the “polyreactivity (PSR sort gate)” value is “low polyreactivity”.

On to “QVQLVESGGGLVQAGGSLRLSCAASGLIFYLYTMGWYRQAPGKERELVAAISRSGTITYYADSVKGRFTISRDNAKNSVYLQMNSLKPEDTAVYYCAATYTYKIGTRYDYWGQGTQVNVSS”, for which the “polyreactivity (PSR sort gate)” value is listed as “high polyreactivity”.

As for “QVQLVESGGGLVQAGGSLRLSCAASGLIFYQYAMGWYRQAPGKESELVAAISRSGGRTNYADSVKGRFTISRDNAKNTVYLQMNSLKPEDTAVYYCNAVHYFLYGYYSWGQGTQVSVSS”, the “polyreactivity (PSR sort gate)” value is on record as “high polyreactivity”.

As for “QVQLVESGGGLVQAGGSLRLSCAASGLIFYRNAMGWYRQAPGKERELVAAIRFSTGSTYYADSVKGRFTISRDNAKNSVYLQMNSLKPEDSAVYCCAAALPGYGDYYYWGQGTQVTVSS”, the “polyreactivity (PSR sort gate)” value is “high polyreactivity”.

Regarding “QVQLVESGGGLVQAGGSLRLSCAASGLIFYRYAMGWYRQAPGKERELVAAISSSGVSTYYADSVKGRFTISRDNAKNTVYLQMNSLIPEDTAVYYCAADVGSRSYSYDYWGQGTQVTVSS”, the “polyreactivity (PSR sort gate)” value is recorded as “low polyreactivity”.

For “QVQLVESGGGLVQAGGSLRLSCAASGLIFYRYTMGWYRQAPGKERELVAAISWSGGRTYYADSVKGRFTISRDNAKNTVYLQMNSLKPEDTAVYYCNAVYYYTRASVPYDYWGQGTQVTVSS”, the “polyreactivity (PSR sort gate)” value is “high polyreactivity”.

“QVQLVESGGGLVQAGGSLRLSCAASGLIFYVYARGWYRQAPGKERELVAAIRYRGGTTHYADSVKGRFTISRDNAKNTVYLQMNSLKPEDTAVYYCAADGYVYRSGRRYDYWGQGTQVTVSS”: the “polyreactivity (PSR sort gate)” value is “high polyreactivity”.

Turning to “QVQLVESGGGLVQAGGSLRLSCAASGLIFYWYAMGWYRQAPGKERELVAAITWSGGITYYADSVKGRFTISRDNAKNTVYLQMNSLKPEDTAVYYCAADDDYGDVTYDYWGQGTQVTVSS”, the “polyreactivity (PSR sort gate)” value was “low polyreactivity”.

Consider “QVQLVESGGGLVQAGGSLRLSCAASGLIIAHYAMGWYRQAPVKERELVAAITSGSSTYYADSVKGRFTISRDNAKNNVYLQMNSLKPEDTAVYYCAAKETHSAYRSSGNYWGQGTQVTVSS”, for which the “polyreactivity (PSR sort gate)” value is “low polyreactivity”.

Take “QVQLVESGGGLVQAGGSLRLSCAASGLIIDGYAMGWSRQAPGKERELVATITVSGTSTYYADSVKGRFTISRDNAKNTVYLQMNSLKPEDTAVYYCDTDRNYGYYFVEYDHDYWGQGTQVTVSS”: the “polyreactivity (PSR sort gate)” value was “low polyreactivity”.

For “QVQLVESGGGLVQAGGSLRLSCAASGLIIGYNAMGLYRQAPGKERELVAAISRSGTHTYYADSVKGRFTISRDNAKNTFNLQMNSLIPEDTAVYYCNATNRRWHRPYSTYWYYYWGQGTQVTVSS”, the “polyreactivity (PSR sort gate)” value was “high polyreactivity”.

Turning to “QVQLVESGGGLVQAGGSLRLSCAASGLIITAYAMGWYRQAPGKERELVAAITGSGGRTYYADSVKGRFTISRDNAKNTVYLQMNSLKPEDTAVYYCAADFPARGSSTSDYWGQGTQVTVSS”, the “polyreactivity (PSR sort gate)” value is “high polyreactivity”.

For the sequence “QVQLVESGGGLVQAGGSLRLSCAASGLIIWYYAMGWYRQAPGKERELVAAISRSGGRTYYADSVKGRFTISRDNAKNTVYLQMNSLKPEDTAVNYCNADVYRGYDYWGQGTQVTVSS”, the “polyreactivity (PSR sort gate)” value was “high polyreactivity”.

On to “QVQLVESGGGLVQAGGSLRLSCAASGLIIYRYGMGWYRQAPGKERELVAAISYSGSSTYYADSVKGRFTISRDNAKNTVYLQMISLKPEDTAVYYCAAQSTRPYPGRYYYWGQGTQVTVSS”, for which the “polyreactivity (PSR sort gate)” value is given as “high polyreactivity”.

On to “QVQLVESGGGLVQAGGSLRLSCAASGLIIYYYAMGWYRQAPGKERELVAAISGSSGASTYYADSVKGRFTISRVNAKNTVYIQMNSLKPEDSAVYYCAADRGYWRYDYWGQGTQVTVSS”, for which the “polyreactivity (PSR sort gate)” value was “low polyreactivity”.
